The text below walks through data of paper doi:10.1101/2020.05.21.107789.

Where two headings read alike, the source gives them in different places. Bounds are passed on as bounds.

In assay [1] the target is TEAD4 (recombinant protein of the TR-FRET and SPR assays) (human). As to the kind of experiment: AlphaScreen or HTRF.
Assay [2] concerns the target N-terminally V5-tagged Asp272Ala^TEAD4 (full length) (human) (UniProt Q15561). The assay can be described thus: co-IP.
For assay [3], the target named is wt^Sd (Scalloped residues 223-440), N-biotinylated-Avitagged (Drosophila melanogaster) (UniProt P30052). The assay can be described thus: SPR.
wt^Sd (Scalloped residues 223-440), N-biotinylated-Avitagged (Drosophila melanogaster), sequence (P30052 223-440): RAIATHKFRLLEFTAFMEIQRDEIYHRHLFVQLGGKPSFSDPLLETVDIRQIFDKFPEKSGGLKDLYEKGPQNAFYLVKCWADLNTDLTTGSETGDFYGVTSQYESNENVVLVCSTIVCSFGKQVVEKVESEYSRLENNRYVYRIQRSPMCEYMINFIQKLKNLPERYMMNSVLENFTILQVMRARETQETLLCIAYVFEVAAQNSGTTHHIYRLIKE
Assay [4] addresses TEAD4 (recombinant protein of the TR-FRET and SPR assays) (human). The assay can be described thus: SPR. (Surface plasmon resonance follows binding to a sensor surface in real time, without labels.)
Assay [5] shares this target. The assay can be described thus: SPR. The source holds these as a separate data set.

N-terminally V5-tagged Asp272Ala^TEAD4 (full length) (human), sequence (Q15561 whole entry D272A, the tested form may be a part): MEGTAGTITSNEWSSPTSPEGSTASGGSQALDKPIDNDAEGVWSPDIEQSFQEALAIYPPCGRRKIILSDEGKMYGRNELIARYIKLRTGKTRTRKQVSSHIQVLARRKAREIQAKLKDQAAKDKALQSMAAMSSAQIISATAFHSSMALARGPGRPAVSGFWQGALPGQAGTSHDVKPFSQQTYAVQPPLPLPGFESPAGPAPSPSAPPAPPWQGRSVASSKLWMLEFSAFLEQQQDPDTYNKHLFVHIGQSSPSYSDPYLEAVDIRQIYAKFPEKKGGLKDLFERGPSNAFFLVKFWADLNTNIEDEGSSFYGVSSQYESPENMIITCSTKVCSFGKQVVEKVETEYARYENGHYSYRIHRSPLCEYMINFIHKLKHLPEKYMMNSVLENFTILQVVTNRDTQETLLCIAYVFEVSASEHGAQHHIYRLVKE

What is called IC50 is the concentration that inhibits the measured activity by half. As to “YAP^85-99 (Ω-loop of YAP) (from UniProt P46937 85-99) (peptide)”, the IC50 in assay [1] was found to be 98 µM.
Molecule “(FLAG)3-delΩ^VGLL2 (full-length VGLL2 with the Ω-loop deleted) (from UniProt Q8N8G2-1 1-317) (natural protein)” yielded a fold reduction of co-IP (IP over input) against wt^TEAD4 with wt^VGLL2 in assay [2] of 2 fold.
One may read the Kd as the constant that tells how readily two partners part at equilibrium. In assay [3], “Vg^298-337 (Vestigial Sd-binding domain without the putative β-strand) (from UniProt Q26366 298-337) (peptide)” returned a Kd of 0.061 µM.
For “VGLL3^140-154 (region of human VGLL3 aligned with the Ω-loop of Vg) (from UniProt A8MV65 140-154) (peptide)”, the IC50 in assay [1] was > 500 µM.

B1: Vg^323-337 (Ω-loop of Vestigial) (peptide)
peptide: Ac-PMSNRNFPPSFWNSN-NH2
In the case of B1, in assay [1], the IC50 stood at 157 µM.

B2: VGLL2^85-108 (β-strand:α-helix of human VGLL2) (peptide)
peptide: Ac-CVLFTYFQGDISSVVDEHFSRALS-NH2
Turning to B2, the Kd in assay [4] was 0.59 µM.

B3: VGLL2^85-149 (β-strand:α-helix:Ω-loop of human VGLL2) (peptide)
peptide: Ac-CVLFTYFQGDISSVVDEHFSRALSQPSSYSPSCTSSKAPRSSGPWRDCSFPMSQRSFPASFWNSA-NH2
As to B3, the Kd in assay [4] was 0.034 µM.

B4: Vg^288-337 (TONDU domain and Ω-loop of Vestigial) (peptide)
peptide: Ac-CVVFTNYSGDTASQVDEHFSRALNYNNKDSKESSSPMSNRNFPPSFWNSN-NH2
For B4, the equilibrium dissociation constant (Kd) in assay [4] was 0.0041 µM; in assay [5], 0.0031 µM.

B5: VGLL2^135-149 (Ω-loop region of human VGLL2) (peptide)
peptide: Ac-PMSQRSFPASFWNSA-NH2
On to B5, for which, in assay [1], the half-inhibitory concentration (IC50) is 133 µM.
